How the values were obtained:
[1] = biological target: T1, AMHRII on the COV434 AMHRII transfected cell line (~80,000 receptors) (human, UniProt Q16671 18-573); test: cell-based or functional assay
T1 sequence: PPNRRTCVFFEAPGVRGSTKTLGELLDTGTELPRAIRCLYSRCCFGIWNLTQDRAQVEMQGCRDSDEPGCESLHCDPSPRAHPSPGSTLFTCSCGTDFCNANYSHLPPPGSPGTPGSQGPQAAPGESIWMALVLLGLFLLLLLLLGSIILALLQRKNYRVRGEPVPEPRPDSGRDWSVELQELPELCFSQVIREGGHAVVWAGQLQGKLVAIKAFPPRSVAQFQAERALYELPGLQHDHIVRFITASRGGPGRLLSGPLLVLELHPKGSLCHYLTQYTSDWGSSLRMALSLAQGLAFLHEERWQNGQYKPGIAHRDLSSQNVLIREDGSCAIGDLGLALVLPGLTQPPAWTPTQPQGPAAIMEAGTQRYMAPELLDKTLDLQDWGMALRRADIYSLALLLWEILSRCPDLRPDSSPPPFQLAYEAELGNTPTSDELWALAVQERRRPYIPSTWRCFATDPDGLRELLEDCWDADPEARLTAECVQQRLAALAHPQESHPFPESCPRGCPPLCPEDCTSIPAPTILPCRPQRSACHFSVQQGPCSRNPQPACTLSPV

[2] = biological target: T2, FcRn; test: SPR ('Binding SPR (KD)' row FcRn); set-up not given
T2 construct: also called neonatal Fc receptor

[3] = biological target: T3, anti-Müllerian hormone type II receptor (AMHRII), immobilised on the SPR chip (human, UniProt Q16671 18-149, limits assumed); test: SPR (Bia3000, 25°C), AMHRII covalently immobilised on a CM5 chip, ADC injected, Langmuir 1:1 fit (Example 3)
T3 construct: also called AMHR2
Protocol: All kinetic measurements are performed on a Bia3000 apparatus at 25° C. in PBS pH 7.4 containing 0.005% of P20 surfactant at 50 μl/min on control and AMHRII Flowcells. The antibody is injected during 180 s at concentrations given in the appendix. After a dissociation step of 400 s in running buffer, sensor surfaces are regenerated using one pulse of 15 μl of Gly-HCL pH1.7. All the sensorgrams are corrected by subtracting the low signal from the control reference surface and blank buffer. Kinetic parameters are evaluated from the sensorgrams using a Langmuir 1:1 model on the BiaEvaluation software 4.2.
For kinetic studies all the mAb and ADC are injected at various concentrations (0.7 nM-100 nM). The sensorgrams are evaluated by L1:1 fitting model (BiaEvaluation 4.2 software) starting of minimum 3 (n=3) separated experiments or fits to obtain average values for ka, kd and KD with standard deviation (SD). Several experiments are performed on the same AMHRII-coated surface after verification of the responses stability to 10 nM injection of 3C23K before and after the experiment series with each mAb/ADC. All results are obtained from two AMHRII-coated Flowcells.

Kd [2]: 22 nM
Kd [3]: 1.7 nM
B1: GM104 (antibody, human IgG1, kappa)
heavy: QVRLVQSGAEVKKPGASVKVSCKASGYTFTSYHIHWVRQAPGQRLEWMGWIYPGDDSTKYSQKFQGRVTITRDTSASTAYMELSSLRSEDTAVYYCTRGDRFAYWGQGTLVTVSSASTKGPSVFPLAPSSKSTSGGTAALGCLVKDYFPEPVTVSWNSGALTSGVHTFPAVLQSSGLYSLSSVVTVPSSSLGTQTYICNVNHKPSNTKVDKRVEPKSCDKTHTCPPCPAPELLGGPSCVFLFPPKPKDTLMISRTPEVTCVVVDVSHEDPEVKFNWYVDGVEVHNAKTKPREEQYNSTYRVVSVLTVLHQDWLNGKEYKCKVSNKALPAPIEKTISKAKGQPREPQVYTLPPSREEMTKNQVSLTCLVKGFYPSDIAVEWESNGQPENNYKTTPPVLDSDGSFFLYSKLTVDKSRWQQGNVFSCSVMHEALHNHYTQKSLSLSPGK
light: DIQMTQSPSTLSASVGDRVTITCRASSSVRYIAWYQQKPGKAPKLLTYPTSSLESGVPSRFSGSGSGTEFTLTISSLQPDDFATYYCLQWSSYPWTFGGGTKVEIKRTVAAPSVFIFPPSDEQLKSGTASVVCLLNNFYPREAKVQWKVDNALQSGNSQESVTEQDSKDSTYSLSSTLTLSKADYEKHKVYACEVTHQGLSSPVTKSFNRGEC
notes: also called GM104 ADC; ADC according to the invention
IC50, proliferation/viability of COV434 AMHRII transfected cells after 72 h (CellTiter Blue) [1]: 0.22 nM
